Assay [1] concerns the target bovine serum albumin (BSA) (bovine, UniProt P02769 25-607). Put plainly: antigen solid phase ELISA: coated BSA, anti-mouse IgG2A-HRP, A450. The protocol: The obtained avian-mouse chimeric antibody in Example 1 and the obtained humanized antibodies (Humanized-1 and Humanized-2) and avian-human chimeric antibody in Example 2 were measured for antigenic specificity by antigen solid phase ELISA with PBS buffer. The obtained avian-mouse chimeric antibody in Example 1, which was labeled with biotin, was also measured for antigenic specificity. CL18M (+) avian-mouse chimeric antibody, which served as a negative control, was also measured for antigenic specificity. Particular measurement conditions were as follows.
Firstly, 2.5 μg/mL of antigen (mouse and human Sema 3A protein) was dispensed into a 384 Well MaxiSorp Plate (Nunc) and reacted overnight at 4° C. in order to coat the plate with the antigen. Otherwise, ovalbumin (OVA) and bovine serum albumin (BSA) were immobilized in the plate as negative controls in similar manner in order to examine specificity of antibodies. After reaction, the plate was washed three times with 50 μL/well of washing solution (PBS containing 0.05% Tween 20), to which was added 25 μL/well of blocking solution (PBS buffer containing 1% bovine serum albumin), and the mixture was reacted for 30 minutes. […] The absorbance was measured at 450 nm using Infinite M1000 (Tecan Trading AG).
(In general: ELISA stands for enzyme-linked immunosorbent assay.)

A further assay has as its target T1, mouse Sema 3A protein (mouse, UniProt O08665 21-772, limits assumed).
T1 construct: Produced from mouse Sema 3A protein expressing cells; also called Mouse Sema 3A antigen
T1 sequence (looked up): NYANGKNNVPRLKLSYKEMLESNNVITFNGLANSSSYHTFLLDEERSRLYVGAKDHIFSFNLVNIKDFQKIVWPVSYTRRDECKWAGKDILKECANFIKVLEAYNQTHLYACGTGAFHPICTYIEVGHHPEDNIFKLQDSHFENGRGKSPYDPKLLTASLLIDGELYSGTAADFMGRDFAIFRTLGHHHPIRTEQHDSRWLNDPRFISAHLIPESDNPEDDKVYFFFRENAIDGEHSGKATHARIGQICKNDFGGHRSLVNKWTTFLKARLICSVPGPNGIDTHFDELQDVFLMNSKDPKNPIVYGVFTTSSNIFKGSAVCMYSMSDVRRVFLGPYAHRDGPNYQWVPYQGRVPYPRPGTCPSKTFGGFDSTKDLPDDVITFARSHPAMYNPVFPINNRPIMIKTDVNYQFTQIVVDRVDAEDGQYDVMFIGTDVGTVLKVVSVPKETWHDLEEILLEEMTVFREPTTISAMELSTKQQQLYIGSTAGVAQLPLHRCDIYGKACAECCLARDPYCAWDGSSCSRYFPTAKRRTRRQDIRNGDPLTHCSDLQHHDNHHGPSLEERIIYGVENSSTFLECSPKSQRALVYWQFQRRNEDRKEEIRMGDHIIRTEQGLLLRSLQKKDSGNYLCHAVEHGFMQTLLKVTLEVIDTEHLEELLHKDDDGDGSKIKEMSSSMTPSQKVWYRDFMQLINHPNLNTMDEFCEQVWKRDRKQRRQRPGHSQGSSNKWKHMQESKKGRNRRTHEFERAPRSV
Put plainly: competitive ELISA on plate-coated mouse Sema 3A; competitor biotin-labelled avian-mouse chimeric antibody (clone No. 4-2) at 60 ng/mL. The protocol:
The obtained clone No. 4-2-derived avian-mouse chimeric antibody in Example 1, the obtained humanized antibodies in Example 2 (Humanized-1 and Humanized-2) and avian-human chimeric antibody were subjected to competitive ELISA to evaluate affinity to the antigen. CL18M (+) avian-mouse chimeric antibody, which served as a negative control, was also measured for affinity to the antigen. Particular measurement conditions were as follows.
Firstly, 2.5 μg/mL of antigen (mouse and human Sema 3A protein) was dispensed into a 384 Well MaxiSorp Plate (Nunc) and reacted overnight at 4° C. in order to coat the plate with the antigen. The next day, the plate was washed three times with 50 μL/well of washing solution (PBS containing 0.05% Tween 20), to which was added 25 μL/well of blocking solution (PBS containing 1% bovine serum albumin) and the mixture was reacted for 30 minutes. Each of humanized antibodies (Humanized-1 and Humanized-2), avian-human chimeric antibody and avian-mouse chimeric antibody was subjected to serial doubling dilution, to which was mixed anti-Sema 3A avian-mouse chimeric antibody labeled with biotin to the final concentration of 60 ng/mL, and the mixture was reacted with the antigen solid phase plate which was washed three times with 50 μL/well of washing solution for one hour. The plate was washed five times with 50 μL/well of washing solution, to which was added 20 μL/well of diluent in which streptavidin labeled with horseradish peroxidase (HRP) (Thermo Fisher Scientific K.K.) was diluted 10000 times with PBS buffer and the mixture was reacted for 30 minutes. The plate was washed five times with 50 μL/well of washing solution, to which was added 20 μL/well of TMB+(Dako) and the mixture was chromogenically reacted for 20 minutes. Subsequently, to the each well was added 20 μL, of 1M sulfuric acid to quench the reaction. The absorbance was measured at 450 nm using Infinite M1000 (Tecan Trading AG).

Broadly, the IC50 is the point on the concentration scale where inhibition reaches its midpoint.

Chain of bovine serum albumin (BSA) (P02769 25-607 limits assumed): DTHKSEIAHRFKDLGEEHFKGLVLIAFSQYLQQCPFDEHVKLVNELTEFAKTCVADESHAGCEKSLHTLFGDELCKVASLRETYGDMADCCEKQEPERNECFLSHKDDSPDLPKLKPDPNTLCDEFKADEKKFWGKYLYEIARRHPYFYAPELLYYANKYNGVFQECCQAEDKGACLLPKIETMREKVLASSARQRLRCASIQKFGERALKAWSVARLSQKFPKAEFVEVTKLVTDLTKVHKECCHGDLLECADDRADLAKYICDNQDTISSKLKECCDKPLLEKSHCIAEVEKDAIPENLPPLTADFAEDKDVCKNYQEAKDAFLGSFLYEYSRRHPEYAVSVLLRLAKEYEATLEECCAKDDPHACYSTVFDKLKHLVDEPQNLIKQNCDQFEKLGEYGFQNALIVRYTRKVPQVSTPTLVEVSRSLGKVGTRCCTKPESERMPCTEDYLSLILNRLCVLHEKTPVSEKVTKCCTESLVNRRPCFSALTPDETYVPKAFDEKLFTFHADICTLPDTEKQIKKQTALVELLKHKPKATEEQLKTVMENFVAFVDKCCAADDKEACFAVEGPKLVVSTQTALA

B1: Anti-Sema 3A avian-mouse chimeric antibody (clone No. 4-2-derived) (antibody, mouse IgG2a)
heavy: AVTLDESGGGLQTPGGALSLVCKASGFTFSSYPMGWVRQAPGKGLEWVAGIDDDGDSDTRYAPAVKGRATISRDNGQSTVRLQLNNLRAEDTGTYYCAKHTGIGANSAGSIDAWGHGTEVIVSSAKTTAPSVYPLAPVCGDTTGSSVTLGCLVKGYFPEPVTLTWNSGSLSSGVHTFPAVLQSDLYTLSSSVTVTSSTWPSQSITCNVAHPASSTKVDKKIEPRGPTIKPCPPCKCPAPNLLGGPSVFIFPPKIKDVLMISLSPIVTCVVVDVSEDDPDVQISWFVNNVEVHTAQTQTHREDYNSTLRVVSALPIQHQDWMSGKEFKCKVNNKDLPAPIERTISKPKGSVRAPQVYVLPPPEEEMTKKQVTLTCMVTDFMPEDIYVEWTNNGKTELNYKNTEPVLDSDGSYFMYSKLRVEKKNWVERNSYSCSVVHEGLHNHHTTKSFSRTPGK
light: ALTQPASVSANLGGTVKITCSGGGSYTGSYYYGWYQQKSPGSALVTMIYYNNKRPSDIPSRFSGSLSGSTNTLTITGVRADDEAVYFCGSADNSGDAFGAGTTLTVLGQPKSSPSVTLFPPSSEELETNKATLVCTITDFYPGVVTVDWKVDGTPVTQGMETTQPSKQSNNKYMASSYLTLTARAWERHSSYSCQVTHEGHTVEKSLSRADCS
notes: Avian variable regions of clone No. 4-2 with mouse IgG2a heavy and mouse lambda light constant regions; also called anti-Sema 3A avian-mouse chimeric antibody (IgG)
Consider B1, for which, in assay [1], the binding result is given as “no binding (tested: about 2 µg/mL)”. For the same molecule, the half-maximal inhibitory concentration (IC50) with mouse Sema 3A protein was determined as 0.147 µg/mL.

The values above are taken from patent publication US20150368327A1 (YOKOHAMA CITY UNIVERSITY, published 2015).
